Assays:
Test in all cases: SPR, AAV on CM5 chip
[1] = biological target: AAV5 (adeno-associated virus serotype 5)
[2] = biological target: AAV8 (adeno-associated virus serotype 8)
[3] = biological target: AAV9 (adeno-associated virus serotype 9)

B1: A4-D13 (protein)
chain: VQLQESGGGLVQPGGSLRLSCAASGSIFIINTMGWYRRAPGKQRELVAAVTRGGSTNYADSVKGRFTISRDNAKNTVYLQMNSLRPEDTAVYYCHVDEVRQSSWTTSNLWGQGTQVTVSSGGGGSGGGGSGGGGSVQLQESGGGLVQPGGSLRLSCAASGSIFSINTMGWYRQAPGKQRELVAAVTRGGSTNYADSVKGRFTISRDNAKNTVYLQMNSLRPEDTAVYYCHVDEVRQSSWTTSNLWGQGTQVTVSSGGGGSGGGGSGGGGSVQLQESGGGLAQAGGSLRLSCAASGRGFSINTMGWYRQAPGKQRELVAAVTRGGTTNYADSVKGRFTISRDNAKNTVYLQMNSLRPEDTAVYYCHVDEVRQSSWTTSNLWGQGTQVTVSSGGGGSGGGGSGGGGSVQLQESGGGLVQPGGSLRLSCAASGRAFSINTMGWYRQAPGKQRELVATVTRDGSTNYAGSVKGRFTISRDNAKNTVYLQMNSLRPEDTAVYYCHVDEVRQSSWTTSNLWGQGTQVTVSS
[1]
  Kd: 0.701 nM
  koff: 1.31e-05 s⁻¹
  kon: 18700 M⁻¹ s⁻¹
[2]
  Kd: 0.355 nM
  koff: 6.9e-06 s⁻¹
  kon: 19400 M⁻¹ s⁻¹
[3]
  Kd: 0.0471 nM
  koff: 2.6e-06 s⁻¹
  kon: 55200 M⁻¹ s⁻¹
